Laboratory results reported in patent publication US20050058639A1 (AstraZeneca / MedImmune, published 2005).

T1: human MIP-1-alpha (human, UniProt P10147 24-92, limits assumed)
T1 construct: also called hMIP-1-alpha
T1 sequence (looked up): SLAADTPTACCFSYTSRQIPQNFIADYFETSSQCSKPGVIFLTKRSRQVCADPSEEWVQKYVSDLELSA

T2: recombinant human MCP-2 (human, UniProt P80075 24-99)
T2 construct: also called rhMCP-2
T2 sequence (looked up): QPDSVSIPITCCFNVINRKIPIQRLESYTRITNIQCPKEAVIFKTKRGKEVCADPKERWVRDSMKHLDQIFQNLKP

T3: human GRO/MGSA (human, UniProt P09341 35-107)
T3 construct: also called hGRO/MGSA; GRO-alpha
T3 sequence (looked up): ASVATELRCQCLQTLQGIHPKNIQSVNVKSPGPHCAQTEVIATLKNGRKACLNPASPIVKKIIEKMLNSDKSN

T4: human RANTES (human, UniProt P13501 24-91)
T4 construct: also called hRANTES
T4 sequence (looked up): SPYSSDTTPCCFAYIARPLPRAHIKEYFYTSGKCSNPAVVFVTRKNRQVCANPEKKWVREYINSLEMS


Assays:
[1] = biological target: T5, human monocyte chemo-attractant protein-1 (MCP-1) (human, UniProt P13500 24-99); assay: cell-based or functional assay
recombinant human MCP-3 = biological target: T6, recombinant human MCP-3 (human, UniProt P80098 24-99); assay: ELISA, coated antigen
T6 construct: also called rhMCP-3
Experimental: (§1) Determining cross-reactivity of anti-MCP-1 antibodies with other chemokines. ELISA plates (Fisher Cat. No. 12-565-136) were coated with 50 μl/well of MCP-1, MCP-2, MCP-3, MCP-4, RANTES, GRO-alpha, MIP-1 alpha, eotaxin, rat MCP-1 and mouse JE (2 μg/ml) in coating buffer (0.1 M carbonate buffer, pH 9.6, NaHCO₃ 8.4 g/L, then incubated at 4° C. overnight. After incubation, the plates were washed with washing buffer (0.05% Tween 20 in PBS) three times. 200 μL/well blocking buffer (0.5% BSA, 0.1% Tween 20, 0.01% Thimerosal in 1×PBS) were added and the plates incubated at room temperature for 1 hour. After incubation, the plates were washed with washing buffer three times. 50 μL/well of hybridoma supernatants, and positive and negative controls (positive control was anti-MCP-1 antibody purchased from R&D Sciences, and negative control was an antibody to Keyhole Limpet Hemocyanin produced at Abgenix) were added and the plates incubated at room temperature for 2 hours. After incubation, the plates were washed three times with washing buffer. […] After incubation, the plates were washed three times with washing buffer and 100 μL/well of TMB (BioFX Lab. Cat. #TMSK-0 100-01) was added and the plates allowed to develop for about 10 minutes.

human MIP-1-alpha = biological target: T1, human MIP-1-alpha; assay: ELISA, coated antigen
Experimental: as §1

[2] = biological target: T5, human monocyte chemo-attractant …; assay: ELISA, coated antigen
Experimental: as §1

rat MCP-1 = rat MCP-1 (rat, UniProt P14844 24-148); assay: ELISA, coated antigen
Experimental: as §1

[3] = biological target: T7, recombinant mouse JE/MCP-1 (mouse, UniProt P10148 24-148); assay: ELISA, coated antigen
T7 construct: also called rmJE/MCP-1
Experimental: as §1

recombinant human MCP-2 = biological target: T2, recombinant human MCP-2; assay: ELISA, coated antigen
Experimental: as §1

recombinant human MCP-4 = biological target: T8, recombinant human MCP-4 (human, UniProt Q99616 24-98, limits assumed); assay: ELISA, coated antigen
T8 construct: also called rhMCP-4
Experimental: as §1

human eotaxin = biological target: T9, human eotaxin (human, UniProt P51671 24-97); assay: ELISA, coated antigen
T9 construct: also called hEotaxin
Experimental: as §1

human GRO/MGSA = biological target: T3, human GRO/MGSA; assay: ELISA, coated antigen
Experimental: as §1

human RANTES = biological target: T4, human RANTES; assay: ELISA, coated antigen
Experimental: as §1

[4] = biological target: T5, human monocyte chemo-attractant …; assay: ELISA, hybridoma supernatant on coated MCP-1
Experimental: Selection of candidate antibodies for ELISA. After 14 days of culture, hybridoma supernatants were screened for MCP-1-specific monoclonal antibodies. The ELISA plates (Fisher, Cat. No. 12-565-136) were coated with 50 μl/well of MCP-1 (2 μg/mL) in Coating Buffer (0.1 M Carbonate Buffer, pH 9.6, NaHCO₃8.4 g/L), then incubated at 4° C. overnight. After incubation, the plates were washed with Washing Buffer (0.05% Tween 20 in PBS) three times. 200 μl/well Blocking Buffer (0.5% BSA, 0.1% Tween 20, 0.01% Thimerosal in 1× PBS) were added and the plates incubated at room temperature for 1 hour. After incubation, the plates were washed with Washing Buffer three times. 50 μL/well of hybridoma supernatants, and positive and negative controls were added and the plates incubated at room temperature for 2 hours.
The positive control used throughout was XMG2 MCP-1 Group 1, footpad N160-7 and the negative control was XMG2 KLH Group 1, footpad L627-6. After incubation, the plates were washed three times with Washing Buffer. […] In the secondary screen, three sets of samples (positives in first screening) were screened, one set for hIgG detection, one set for hKappa detection, and one set for hlambda detection. After incubation, the plates were washed three times with Washing Buffer. 100 μL/well of TMB (BioFX Lab. Cat. #TMSK-0100-01) were added and the plates allowed to develop for about 10 minutes (until negative control wells barely started to show color), then 50 μL/well stop solution (TMB Stop Solution (BioFX Lab. Cat. #STPR-0100-01) were added and the plates read on an ELISA plate reader at wavelength 450 nm. The OD readings from the positive wells are presented in Table 9.

T8 sequence (Q99616 24-98 limits assumed): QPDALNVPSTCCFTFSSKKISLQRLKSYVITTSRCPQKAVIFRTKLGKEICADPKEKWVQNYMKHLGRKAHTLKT
Sequence of rat MCP-1 (P14844 24-148 limits assumed): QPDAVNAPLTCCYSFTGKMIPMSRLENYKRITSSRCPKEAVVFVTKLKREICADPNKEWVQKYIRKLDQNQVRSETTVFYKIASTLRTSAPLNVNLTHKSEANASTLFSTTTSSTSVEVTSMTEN
T6 sequence (P80098 24-99 limits assumed): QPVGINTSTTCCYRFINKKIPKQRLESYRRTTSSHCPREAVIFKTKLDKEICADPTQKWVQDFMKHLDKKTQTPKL
T7 sequence (P10148 24-148 limits assumed): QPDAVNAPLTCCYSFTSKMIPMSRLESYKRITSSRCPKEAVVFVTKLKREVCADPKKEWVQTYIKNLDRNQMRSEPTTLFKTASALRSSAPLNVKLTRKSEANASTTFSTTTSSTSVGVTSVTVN
T5 sequence (P13500 24-99): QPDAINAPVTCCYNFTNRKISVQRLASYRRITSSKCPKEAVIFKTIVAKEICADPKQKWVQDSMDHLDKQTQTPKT
T9 sequence (P51671 24-97 limits assumed): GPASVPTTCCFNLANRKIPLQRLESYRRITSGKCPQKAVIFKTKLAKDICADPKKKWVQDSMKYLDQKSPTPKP

Row | Binder | IC50 Ca++ Flux [1] | IC50 Chemotaxis [1] | ELISA OD (recombinant human MCP-3) | ELISA OD (human MIP-1-alpha) | ELISA OD [2] | ELISA OD (rat MCP-1) | ELISA OD [3] | ELISA OD (recombinant human MCP-2) | ELISA OD (recombinant human MCP-4) | ELISA OD (human eotaxin) | ELISA OD (human GRO/MGSA) | ELISA OD (human RANTES) | ELISA OD-MCP-1 [4]
1 | anti-MCP-1 mAb 1.6.1 (antibody, V domains shown) VH: QVQLVQSGAEVKKPGASVKVSCKVSGYTLTELSMHWVRQAPGKGLEWMGGFDPEDGETIYAQKFQGRVTMTEDTSTDTAYMELSSLRSEDTAVYYCATWYSGIYLAFDIWGQGTMVTVSS VL: EIVLTQSPDFQSVTPKEKVTITCRASQSIGSSLHWYQQKPDQSPKLLIKYASQSFSGVPSRFSGSGSGTDFTLTINSLEAEDAATYYCHQSSSLPHTFGGGTKVEIKR | 1 µg/mL | 12 µg/mL | 0.046 OD450 | 0.046 OD450 | 0.375 OD450 | 0.062 OD450 | 0.042 OD450 | 0.042 OD450 | 0.044 OD450 | 0.042 OD450 | 0.046 OD450 | 0.046 OD450 | 3.92 OD450
2 | anti-MCP-1 mAb 3.2 (antibody, V domains shown, also called 3.2 (neat)) VH: QVQLVQSGAEVKKPGASVKVSCKVSGYTLSELSMHWVRQAPGKGLEWMGGFDPEDGEIIHAQKFQGRVTMTEDTSTDTAYMELSSLRSEDTAVYYCATGDFWSGYYLDWWGQGTLVTVSS VL: EIVMMQSPATLSVSPGERATLSCRASQSVNSNLAWYQQKPGQAPRLLINGASTRATGIPARFSGSGSGTEFTLTISSLQSEDFAIYYCQQYNDWPTFTFGGGTKVEINR |  |  | 0.449 OD450 | 0.041 OD450 | 0.235 OD450 | 0.07 OD450 | 0.059 OD450 | 0.535 OD450 | 0.041 OD450 | 0.194 OD450 | 0.042 OD450 | 0.043 OD450 | 3.96 OD450
3 | anti-MCP-1 mAb 1.1.1 (antibody, human IgG2, kappa, V domains shown) VH: QVQLVQSGAEVKKPGASVKVSCKVSGYTLTELSMHWVRQAPGNGLEWMGGFDPEDGETIYAQRFQGRVVMTEDPSTDTAYMELSSLRSEDTAVYYCATNEFWSGYFDYWGQGTLVTVSS VL: DIVMTQSPDSLAMSLGERATINCKSSQSVLYSSNNKNYLVWYQQKPGQPPKLLIYWASIRESGVPDRFSSSGSETDFTLTISSLQAEDVAVYYCQQYFSSPWTFGQGTKVEIKR | 0.24 µg/mL | 0.27 µg/mL | 0.064 OD450 | 0.044 OD450 | 0.944 OD450 | 0.051 OD450 | 0.045 OD450 | 0.051 OD450 | 0.052 OD450 | 0.042 OD450 | 0.047 OD450 | 0.044 OD450 | 3.64 OD450
4 | anti-MCP-1 mAb 1.5.1 (antibody, V domains shown) VH: QVQLVQSGAEVKKPGASVKVSCKVSGYTLTELSMHWVRQAPGKGLEWMGGFDPEDDETIYAQKFQGRVTMTEDTSTDTAYMELSSLRSEDTAVYFCATNDFWSGYFDCWDQGTLVTVSS VL: not shown | 0.21 µg/mL | 0.34 µg/mL | 0.069 OD450 | 0.041 OD450 | 1.18 OD450 | 0.045 OD450 | 0.043 OD450 | 0.047 OD450 | 0.05 OD450 | 0.043 OD450 | 0.048 OD450 | 0.049 OD450 | 0.51 OD450
